{
  "source": "the DeepSol protein solubility set",
  "data": [
    {"experiment": "soluble on expression in E. coli; label from the status in PepcDB or PDB records", "values": [
      {"sequence": "MSGDENPASKPTPVQDVQGDGRWMSLHHRFVADSKDKEPEVVFIGDSLVQLMHQCEIWRELFSPLHALNFGIGGDSTQHVLWRLENGELEHIRPKIVVVWVGTNNHGHTAEQVTGGIKAIVQLVNERQPQARVVVLGLLPRGQHPNPLREKNRRVNELVRAALAGHPRAHFLDADPGFVHSDGTISHHDMYDYLHLSRLGYTPVCRALHSLLLRLLTQDQGQGGAPLPEPSP", "soluble on expression in E. coli": "soluble"},
      {"sequence": "MANAASGMAVHDDCKLRFLELKAKRTHRFIVYKIEEKQKQVVVEKVGQPIQTYEEFAACLPADECRYAIYDFDFVTAENCQKSKIFFIAWCPDIAKVRSKMIYASSKDRFKRELDGIQVELQATDPTEMDLDVFRSRAN", "soluble on expression in E. coli": "soluble"},
      {"sequence": "MFQLSTQDIHLAAQADNKNAAITQVAAALTQAGCVTAAYVDGMLAREQQTSTYLGNGIAIPHGTTDTRDQVLNTGVQVFQFPQGIEWGADQTAYIVIGIAARSDEHLALLRQLTHVLSDDAVAARLAKTTSAEELRSLLMGEQKTAEFHFDTSLIALDVAADNLITLQALNAGRLQQIGAVDARFVSDVITREPLNLGQGIWLSDSTEGNLVSAVTISRPATAFEHKGEKVALLLTLSVADDQPLTVLNYLSELLLAQKADALLNADAAALLALLTSEYVEQSKVLSAEFVIRNEHGLHARPGTILVNTIKQFTSEITVTNLDGTGKPANGRSLMKVVALGVKKGNRLRFTASGEDAQTALDTIGEVIAAGLGEGAA", "soluble on expression in E. coli": "not soluble"},
      {"sequence": "MGSDKIHHHHHHAQQAPAPCGLVPSARQLEWYNREMIAFFHFGINTFEEYVNEGDGKASTAIFNPTALDCRQWMQTLKAAGIPAAILTAKHADGFCLWPSKYTDYSVKNAAWKNGKGDVVREFVDACEEYGLKAGIYLGPHDRHEHLSPLYTTERYKEYYAHQLGELMSDYGKIWETWWDGAGADELTTPVYRHWYKIVREKQPDCVIFGTKNSYPFADVRWMGNEAGEAGDPCWATTDSVAIRDEAQYYKGLNEGMLDGDAYIPAETDVSIRPSWFYHAEEDSRVKSVRELWDIYCTSVGRNSVLLLNFPPDRRGLIHSTDSLHAALLKQGIDETFSTNLLRGAKVKATNVRGAKYSPEKMLDNEKNTYFAGKDGEVKADIIFTLPKTIEFDCLMIEEVIELGHRTTKWSVEYTVDGKNWITIPEATDKQAIGHKWIVRLAPVKAKQVRLRIQDGKACPAIHTFGVYKQSPVFKL", "soluble on expression in E. coli": "not soluble"},
      {"sequence": "MATENPQTWALWLILSEMASDMQEDKKVAKILVLGPPKAGKTTLCTFLADFMEDGDTLKKGEDSGERERKFEFEFTSVYRPTKGVRIQEFETHEFFTEQEQNELGGTRRLEDSEIQLWDVSGDKKYEDCWPAIKENAEGVILVVNPEEHKGSDLQQWFYEFVEKENIDLSCVMVILNEQGAKKTNHEQISGFEILPKLRGVHHVAHHFGSEAMQVKMEVNSFMASVLKMDQRQMGSGVDHGLGYADEQEDDF", "soluble on expression in E. coli": "not soluble"},
      {"sequence": "MKNIRNFSIIAHIDHGKSTLSDRIIQICGGLSDREMEAQVLDSMDLERERGITIKAQSVTLDYKASDGETYQLNFIDTPGHVDFSYEVSRSLAACEGALLVVDAGQGVEAQTLANCYTAMEMDLEVVPVLNKIDLPAADPERVAEEIEDIVGIDATDAVRCSAKTGVGVQDVLERLVRDIPPPEGDPEGPLQALIIDSWFDNYLGVVSLIRIKNGTLRKGDKVKVMSTGQTYNADRLGIFTPKQVDRTELKCGEVGWLVCAIKDIHGAPVGDTLTLARNPAEKALPGFKKVKPQVYAGLFPVSSDDYEAFRDALGKLSLNDASLFYEPESSSALGFGFRCGFLGLLHMEIIQERLEREYDLDLITTAPTVVYEVETTSREVIYVDSPSKLPAVNNIYELREPIAECHMLLPQAYLGNVITLCVEKRGVQTNMVYHGNQVALTYEIPMAEVVLDFFDRLKSTSRGYASLDYNFKRFQASDMVRVDVLINGERVDALALITHRDNSQNRGRELVEKMKDLIPRQQFDIAIQAAIGTHIIARSTVKQLRKNVLAKCYGGDISRKKKLLQKQKEGKKRMKQIGNVELPQEAFLAILHVGKDNK", "soluble on expression in E. coli": "soluble"},
      {"sequence": "EKLTLAEKVWRDHVVSKGENGEPDLLYIDLQLLHEVTSPQAFDGLRMTGRKLRHPELHLATEDHNVPTEGIKTGSLLEINDKISRLQVSTLRDNCEEFGVRLHPMGDVRQGIVHTVGPQLGATQPGMTIVCGDSHTSTHGAFGSMAFGIGTSEVEHVMATQTLPLKPFKT", "soluble on expression in E. coli": "not soluble"},
      {"sequence": "QIIKDVVVWKTSLQDSDTPEKTLVFTATIKPGWHLYDQNLPEDGPTSTEFLFDKMTGAKLVGKAIPDKAPVNRYDKQFEMDLRWYEKTVSFRQKIQVTDPAKFSIKGGVRFMACNDENCLPPETSDFSFDASMIKSKAAAPDTEAEAAEAVAAETAADTTSQTDAAEALSSKADLWTPVVSELRAYGDDTLKQAESAPWKIFLYG", "soluble on expression in E. coli": "not soluble"},
      {"sequence": "VPVQLADLKEVRIAYQSIGSESDPALLLVMGLGGQLIHWPDEVVVALCQQGYRVIRYDNRDVGLSTWVQQPADANLTVEVLRYKLGLPVSSPYSLTDMADDALGLMDALQIRQFHVLGASMGGMIAQHLADLAPSRVESLTLIMTSSGAQGLPMPNAALLQLLARRGAPDREVALEQQADLLAALGSPQVKDDREQLLHQAAVSYDRAFNPEGVKRQIMAILAEPSRVELLNRLRLPVLVVHGTADPLLPVMHGVHVAAHIQGSQLRLIPGLAHRFQEAFKAPLLGAVLPYLKA", "soluble on expression in E. coli": "not soluble"},
      {"sequence": "MHYSQMRWMFFCLTALLHGSFIVNAAKILVYCPSISKSHVLLCSKYADLLHNAGHDTVLFIPSYSKLLDNYDGAKHAKVWRLHNVTEAYDTKLGTLANVMENSHIGFIDRLTFDADFWIDMCADLLGKLPEMQHIIDYKFDLVIYNEIDPCTPAIVRLFNIPKTVLLSSEAIMDKVAWNLGKPMTTFAES", "soluble on expression in E. coli": "not soluble"},
      {"sequence": "MGSDKIHHHHHHMILLSFDIEEFDVPKEHQVDISMEEQIKVSVEGTTRILDCLERNQVKATFFCTANFALHAPDIIKRIQEGGHEIASHGFYHWTFEVEDLKRSKDQLEEITGTKVYGYRQARMMPVSEKAVYEAGYIYNSSLNPTFIPGRYMRLSTPRTPFIKDRVMQMPASVTPLLRFPLFWLSCHNLPASLYRWLCKYTHRHDGYFVTYFHPWEFYPLNEHPEWKLPFIIRNHAGEGMEKRLDAFILYFRKKNVSFGRFIDYIKLNKDIMK", "soluble on expression in E. coli": "not soluble"},
      {"sequence": "MASQPNSSAKKKEEKGKNIQVVVRCRPFNLAERKASAHSIVECDPVRKEVSVRTGGLADKSSRKTYTFDMVFGASTKQIDVYRSVVCPILDEVIMGYNCTIFAYGQTGTGKTFTMEGERSPNEEYTWEEDPLAGIIPRTLHQIFEKLTDNGTEFSVKVSLLEIYNEELFDLLNPSSDVSERLQMFDDPRNKRGVIIKGLEEITVHNKDEVYQILEKGAAKRTTAATLMNAYSSRSHSVFSVTIHMKETTIDGEELVKIGKLNLVDLAGSENIGRSGAVDKRAREAGNINQSLLTLGRVITALVERTPHVPYRESKLTRILQDSLGGRTRTSIIATISPASLNLEETLSTLEYAHRAKNILNKPEVNQKL", "soluble on expression in E. coli": "soluble"},
      {"sequence": "MKKIITLFGACALAFSMANADVNLYGPGGPHTALKDIANKYSEKTGVKVNVNFGPQATWFEKAKKDADILFGASDQSALAIASDFGKDFNVSKIKPLYFREAIILTQKGNPLKIKGLKDLANKKVRIVVPEGAGKSNTSGTGVWEDMIGRTQDIKTIQNFRNNIVAFVPNSGSARKLFAQDQADAWITWIDWSKSNPDIGTAVAIEKDLVVYRTFNVIAKEGASKETQDFIAYLSSKEAKEIFKKYGWREH", "soluble on expression in E. coli": "soluble"},
      {"sequence": "MPEPTADAPTVPKARSCPFLPPDGIADIRAAAPVTRATFTSGHEAWLVTGYEEVRALLRDSSFSVQVPHALHTQDGVVTQKPGRGSLLWQDEPEHTSDRKLLAKEFTVRRMQALRPNIQRIVDEHLDAIEARGGPVDLVKTFANAVPSMVISDLFGVPVERRAEFQDIAEAMMRVDQDAAATEAAGMRLGGLLYQLVQERRANPGDDLISALITTEDPDGVVDDMFLMNAAGTLLIAAHDTTACMIGLGTALLLDSPDQLALLREDPSLVGNAVEELLRYLTIGQFGGERVATRDVELGGVRIAKGEQVVAHVLAADFDPAFVEEPERFDITRRPAPHLAFGFGAHQCIGQQLARIELQIVFETLFRRLPGLRLAKPVEELRFRHDIVFYGVHELPVTWHHHH", "soluble on expression in E. coli": "soluble"}
    ]}
  ]
}
